Numbered stars: 1 amine (or outer) side, 2 acyl side, 3 side chain; on linkers, the order of the positions; unused ones are H or OH. Square brackets hold non-standard residues; d marks the D form. Asp(NHcPr) = N-omega-cyclopropylasparagine, O=C(C[C@H](N[*:1])C(=O)[*:2])NC1CC1; Asp(NHBzl) = N-omega-benzylasparagine, O=C(C[C@H](N[*:1])C(=O)[*:2])NCc1ccccc1; Phe(4-F) = N[C@@H](Cc1ccc(F)cc1)C(=O)O; Arg(Me) = CNC(=N)NCCC[C@H](N)C(=O)O; Dap(CONH2) = NC(=O)NC[C@H](N)C(=O)O; Ala(cPr) = N[C@@H](CC1CC1)C(=O)O; Hyp = O=C(O)[C@@H]1C[C@@H](O)CN1; Cit = NC(=O)NCCC[C@H](N)C(=O)O; NMeS = CN[C@@H](CO)C(=O)O; Aib = CC(C)(N)C(=O)O; azaGly = NNC(=O)O
B1: des(1)-Ac-[D-Tyr2,Hyp3,His4,Thr5,AzaGly7,Arg(Me)9,Trp10]MS10 (peptide)
peptide: Ac-[dY][Hyp]HTF[azaGly]L[Arg(Me)]W-NH2
SMILES: CNC(=N)NCCC[C@H](NC(=O)[C@H](CC(C)C)NC(=O)NNC(=O)[C@H](Cc1ccccc1)NC(=O)[C@@H](NC(=O)[C@H](Cc1c[nH]cn1)NC(=O)[C@@H]1C[C@@H](O)CN1C(=O)[C@@H](Cc1ccc(O)cc1)NC(C)=O)[C@@H](C)O)C(=O)N[C@@H](Cc1c[nH]c2ccccc12)C(N)=O
B2: des(1)-Ac-[D-Tyr2,Hyp3,Arg4,Thr5,AzaGly7,Arg(Me)9,Trp10]MS10 (peptide)
peptide: Ac-[dY][Hyp]RTF[azaGly]L[Arg(Me)]W-NH2
SMILES: CNC(=N)NCCC[C@H](NC(=O)[C@H](CC(C)C)NC(=O)NNC(=O)[C@H](Cc1ccccc1)NC(=O)[C@@H](NC(=O)[C@H](CCCNC(=N)N)NC(=O)[C@@H]1C[C@@H](O)CN1C(=O)[C@@H](Cc1ccc(O)cc1)NC(C)=O)[C@@H](C)O)C(=O)N[C@@H](Cc1c[nH]c2ccccc12)C(N)=O
B3: des(1)-Ac-[D-Tyr2,Aib3,Thr5,Phe(4F)6,AzaGly7,Arg(Me)9,Trp10]MS10 (peptide)
peptide: Ac-[dY][Aib]NT[Phe(4-F)][azaGly]L[Arg(Me)]W-NH2
SMILES: CNC(=N)NCCC[C@H](NC(=O)[C@H](CC(C)C)NC(=O)NNC(=O)[C@H](Cc1ccc(F)cc1)NC(=O)[C@@H](NC(=O)[C@H](CC(N)=O)NC(=O)C(C)(C)NC(=O)[C@@H](Cc1ccc(O)cc1)NC(C)=O)[C@@H](C)O)C(=O)N[C@@H](Cc1c[nH]c2ccccc12)C(N)=O
B4: des(1)-Ac-[D-Tyr2,Hyp3,Alb4,Thr5,AzaGly7,Arg(Me)9,Trp10]MS10 (peptide)
peptide: Ac-[dY][Hyp][Dap(CONH2)]TF[azaGly]L[Arg(Me)]W-NH2
SMILES: CNC(=N)NCCC[C@H](NC(=O)[C@H](CC(C)C)NC(=O)NNC(=O)[C@H](Cc1ccccc1)NC(=O)[C@@H](NC(=O)[C@H](CNC(N)=O)NC(=O)[C@@H]1C[C@@H](O)CN1C(=O)[C@@H](Cc1ccc(O)cc1)NC(C)=O)[C@@H](C)O)C(=O)N[C@@H](Cc1c[nH]c2ccccc12)C(N)=O
B5: des(1)-Ac-[D-Tyr2,Hyp3,Gly5,AzaGly7,Arg(Me)9,Trp10]MS10 (peptide)
peptide: Ac-[dY][Hyp]NGF[azaGly]L[Arg(Me)]W-NH2
SMILES: CNC(=N)NCCC[C@H](NC(=O)[C@H](CC(C)C)NC(=O)NNC(=O)[C@H](Cc1ccccc1)NC(=O)CNC(=O)[C@H](CC(N)=O)NC(=O)[C@@H]1C[C@@H](O)CN1C(=O)[C@@H](Cc1ccc(O)cc1)NC(C)=O)C(=O)N[C@@H](Cc1c[nH]c2ccccc12)C(N)=O
B6: des(1)-Ac-[D-Tyr2,Hyp3,Ala5,AzaGly7,Arg(Me)9,Trp10]MS10 (peptide)
peptide: Ac-[dY][Hyp]NAF[azaGly]L[Arg(Me)]W-NH2
SMILES: CNC(=N)NCCC[C@H](NC(=O)[C@H](CC(C)C)NC(=O)NNC(=O)[C@H](Cc1ccccc1)NC(=O)[C@H](C)NC(=O)[C@H](CC(N)=O)NC(=O)[C@@H]1C[C@@H](O)CN1C(=O)[C@@H](Cc1ccc(O)cc1)NC(C)=O)C(=O)N[C@@H](Cc1c[nH]c2ccccc12)C(N)=O
B7: des(1)-Ac-[D-Tyr2,Hyp3,Cit4,Thr5,AzaGly7,Arg(Me)9,Trp10]MS10 (peptide)
peptide: Ac-[dY][Hyp][Cit]TF[azaGly]L[Arg(Me)]W-NH2
SMILES: CNC(=N)NCCC[C@H](NC(=O)[C@H](CC(C)C)NC(=O)NNC(=O)[C@H](Cc1ccccc1)NC(=O)[C@@H](NC(=O)[C@H](CCCNC(N)=O)NC(=O)[C@@H]1C[C@@H](O)CN1C(=O)[C@@H](Cc1ccc(O)cc1)NC(C)=O)[C@@H](C)O)C(=O)N[C@@H](Cc1c[nH]c2ccccc12)C(N)=O
B8: des(1)-Ac-[D-Tyr2,Hyp3,Thr5,AzaGly7,Ala(cPr)8,Arg(Me)9,Trp10]MS10 (peptide)
peptide: Ac-[dY][Hyp]NTF[azaGly][Ala(cPr)][Arg(Me)]W-NH2
SMILES: CNC(=N)NCCC[C@H](NC(=O)[C@H](CC1CC1)NC(=O)NNC(=O)[C@H](Cc1ccccc1)NC(=O)[C@@H](NC(=O)[C@H](CC(N)=O)NC(=O)[C@@H]1C[C@@H](O)CN1C(=O)[C@@H](Cc1ccc(O)cc1)NC(C)=O)[C@@H](C)O)C(=O)N[C@@H](Cc1c[nH]c2ccccc12)C(N)=O
B9: des(1)-Ac-[D-Tyr2,Hyp3,Hyp5,AzaGly7,Arg(Me)9,Trp10]MS10 (peptide)
peptide: Ac-[dY][Hyp]N[Hyp]F[azaGly]L[Arg(Me)]W-NH2
SMILES: CNC(=N)NCCC[C@H](NC(=O)[C@H](CC(C)C)NC(=O)NNC(=O)[C@H](Cc1ccccc1)NC(=O)[C@@H]1C[C@@H](O)CN1C(=O)[C@H](CC(N)=O)NC(=O)[C@@H]1C[C@@H](O)CN1C(=O)[C@@H](Cc1ccc(O)cc1)NC(C)=O)C(=O)N[C@@H](Cc1c[nH]c2ccccc12)C(N)=O
B10: des(1)-Ac-[D-Tyr2,Hyp3,NMeSer5,AzaGly7,Arg(Me)9,Trp10]MS10 (peptide)
peptide: Ac-[dY][Hyp]N[NMeS]F[azaGly]L[Arg(Me)]W-NH2
SMILES: CNC(=N)NCCC[C@H](NC(=O)[C@H](CC(C)C)NC(=O)NNC(=O)[C@H](Cc1ccccc1)NC(=O)[C@H](CO)N(C)C(=O)[C@H](CC(N)=O)NC(=O)[C@@H]1C[C@@H](O)CN1C(=O)[C@@H](Cc1ccc(O)cc1)NC(C)=O)C(=O)N[C@@H](Cc1c[nH]c2ccccc12)C(N)=O
B11: des(1)-Ac-[D-Tyr2,D-Trp3,Asp(NHBzl)4,Thr5,AzaGly7,Arg(Me)9,Trp10]MS10 (peptide)
peptide: Ac-[dY][dW][Asp(NHBzl)]TF[azaGly]L[Arg(Me)]W-NH2
SMILES: CNC(=N)NCCC[C@H](NC(=O)[C@H](CC(C)C)NC(=O)NNC(=O)[C@H](Cc1ccccc1)NC(=O)[C@@H](NC(=O)[C@H](CC(=O)NCc1ccccc1)NC(=O)[C@@H](Cc1c[nH]c2ccccc12)NC(=O)[C@@H](Cc1ccc(O)cc1)NC(C)=O)[C@@H](C)O)C(=O)N[C@@H](Cc1c[nH]c2ccccc12)C(N)=O
B12: des(1)-Ac-[D-Tyr2,Hyp3,D-Ala5,AzaGly7,Arg(Me)9,Trp10]MS10 (peptide)
peptide: Ac-[dY][Hyp]N[dA]F[azaGly]L[Arg(Me)]W-NH2
SMILES: CNC(=N)NCCC[C@H](NC(=O)[C@H](CC(C)C)NC(=O)NNC(=O)[C@H](Cc1ccccc1)NC(=O)[C@@H](C)NC(=O)[C@H](CC(N)=O)NC(=O)[C@@H]1C[C@@H](O)CN1C(=O)[C@@H](Cc1ccc(O)cc1)NC(C)=O)C(=O)N[C@@H](Cc1c[nH]c2ccccc12)C(N)=O
B13: des(1)-Ac-[D-Tyr2,Gly3,Thr5,Phe(4F)6,AzaGly7,Arg(Me)9,Trp10]MS10 (peptide)
peptide: Ac-[dY]GNT[Phe(4-F)][azaGly]L[Arg(Me)]W-NH2
SMILES: CNC(=N)NCCC[C@H](NC(=O)[C@H](CC(C)C)NC(=O)NNC(=O)[C@H](Cc1ccc(F)cc1)NC(=O)[C@@H](NC(=O)[C@H](CC(N)=O)NC(=O)CNC(=O)[C@@H](Cc1ccc(O)cc1)NC(C)=O)[C@@H](C)O)C(=O)N[C@@H](Cc1c[nH]c2ccccc12)C(N)=O
B14: des(1)-Ac-[D-Tyr2,D-Trp3,Asp(NHcPr)4,Thr5,AzaGly7,Arg(Me)9,Trp10]MS10 (peptide)
peptide: Ac-[dY][dW][Asp(NHcPr)]TF[azaGly]L[Arg(Me)]W-NH2
SMILES: CNC(=N)NCCC[C@H](NC(=O)[C@H](CC(C)C)NC(=O)NNC(=O)[C@H](Cc1ccccc1)NC(=O)[C@@H](NC(=O)[C@H](CC(=O)NC1CC1)NC(=O)[C@@H](Cc1c[nH]c2ccccc12)NC(=O)[C@@H](Cc1ccc(O)cc1)NC(C)=O)[C@@H](C)O)C(=O)N[C@@H](Cc1c[nH]c2ccccc12)C(N)=O
B15: des(1)-Ac-[D-Tyr2,Hyp3,Gln4,Thr5,AzaGly7,Arg(Me)9,Trp10]MS10 (peptide)
peptide: Ac-[dY][Hyp]QTF[azaGly]L[Arg(Me)]W-NH2
SMILES: CNC(=N)NCCC[C@H](NC(=O)[C@H](CC(C)C)NC(=O)NNC(=O)[C@H](Cc1ccccc1)NC(=O)[C@@H](NC(=O)[C@H](CCC(N)=O)NC(=O)[C@@H]1C[C@@H](O)CN1C(=O)[C@@H](Cc1ccc(O)cc1)NC(C)=O)[C@@H](C)O)C(=O)N[C@@H](Cc1c[nH]c2ccccc12)C(N)=O
B16: des(1)-Ac-[D-Tyr2,Hyp3,Gly4,Thr5,AzaGly7,Arg(Me)9,Trp10]MS10 (peptide)
peptide: Ac-[dY][Hyp]GTF[azaGly]L[Arg(Me)]W-NH2
SMILES: CNC(=N)NCCC[C@H](NC(=O)[C@H](CC(C)C)NC(=O)NNC(=O)[C@H](Cc1ccccc1)NC(=O)[C@@H](NC(=O)CNC(=O)[C@@H]1C[C@@H](O)CN1C(=O)[C@@H](Cc1ccc(O)cc1)NC(C)=O)[C@@H](C)O)C(=O)N[C@@H](Cc1c[nH]c2ccccc12)C(N)=O
B17: des(1)-Ac-[D-Tyr2,Hyp3,Thr5,AzaGly7,Trp10]MS10 (peptide)
peptide: Ac-[dY][Hyp]NTF[azaGly]LRW-NH2
SMILES: CC(=O)N[C@H](Cc1ccc(O)cc1)C(=O)N1C[C@H](O)C[C@H]1C(=O)N[C@@H](CC(N)=O)C(=O)N[C@H](C(=O)N[C@@H](Cc1ccccc1)C(=O)NNC(=O)N[C@@H](CC(C)C)C(=O)N[C@@H](CCCNC(=N)N)C(=O)N[C@@H](Cc1c[nH]c2ccccc12)C(N)=O)[C@@H](C)O

Biological target: human OT7T175 (metastin receptor) (human) (UniProt Q969F8)
Sequence (Q969F8 whole entry L364H): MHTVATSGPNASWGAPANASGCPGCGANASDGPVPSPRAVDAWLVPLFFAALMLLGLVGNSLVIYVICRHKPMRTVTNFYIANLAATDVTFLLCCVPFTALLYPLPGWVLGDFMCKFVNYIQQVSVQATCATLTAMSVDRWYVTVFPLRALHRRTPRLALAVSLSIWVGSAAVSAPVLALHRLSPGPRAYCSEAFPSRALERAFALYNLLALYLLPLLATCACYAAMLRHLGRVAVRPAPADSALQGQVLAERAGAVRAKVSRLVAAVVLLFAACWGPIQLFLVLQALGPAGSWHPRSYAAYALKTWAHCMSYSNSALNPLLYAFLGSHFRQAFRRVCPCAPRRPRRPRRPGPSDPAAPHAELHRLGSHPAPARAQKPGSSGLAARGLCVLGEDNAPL
Assay: cell-based or functional assay

| Binder | intracellular Ca ion level-increasing activity [specific activity to Metastin (1-54)] (relative to Metastin (1-54)) |
| --- | --- |
| B1 | 1.1 |
| Ac-[dY][Hyp]NT[dF][azaGly]L[Arg(Me)]W-NH2 [des(1)-Ac-[D-Tyr2,Hyp3,Thr5,D-Phe6,AzaGly7,Arg(Me)9,Trp10]MS10] | 2.3 |
| B2 | 1.4 |
| B3 | 2.9 |
| B4 | 0.8 |
| B5 | 0.5 |
| Ac-[dY][Hyp][dN]TF[azaGly]L[Arg(Me)]W-NH2 [des(1)-Ac-[D-Tyr2,Hyp3,D-Asn4,Thr5,AzaGly7,Arg(Me)9,Trp10]MS10] | 0.9 |
| B6 | 0.5 |
| B7 | 1 |
| B8 | 0.6 |
| B9 | 1.5 |
| B10 | 1 |
| B11 | 3.6 |
| B12 | 0.5 |
| {4‑(bis-(2-pyridylmethyl)aminomethyl)benzoyl}-F[azaGly]L[Arg(Me)]W-NH2 [des(1-5)-4-[Bis-(2-Pyridylmethyl)aminomethyl]benzoyl-[AzaGly7,Arg(Me)9,Trp10]MS10] | 11.1 |
| B13 | 2.3 |
| {4‑ureidobenzoyl}-F[azaGly]L[Arg(Me)]W-NH2 [des(1-5)-4-Ureidobenzoyl-[AzaGly7,Arg(Me)9,Trp10]MS10] | 1.3 |
| B14 | 1.6 |
| B15 | 0.8 |
| B16 | 0.7 |
| Ac-[dY][Hyp]N[dT]F[azaGly]L[Arg(Me)]W-NH2 [des(1)-Ac-[D-Tyr2,Hyp3,D-Thr5,AzaGly7,Arg(Me)9,Trp10]MS10] | 0.9 |
| B17 | 1.4 |
